According to paper doi:10.1101/2020.12.08.416701:

Legend:
TβRI ectodomain (human) [1] = target: TβRI ectodomain (human) (UniProt P36897); assay: SEC-MALS
TβRI ectodomain (human) [2] = target: TβRI ectodomain (human) (UniProt P36897); assay: ITC
[3] = target: biotinylated avi-tagged TβRI (human) (UniProt P36897); assay: SPR
TβRII ectodomain (human) = TβRII ectodomain (human) (UniProt P37173); assay: ITC
[4] = target: biotinylated avi-tagged TβRII (human) (UniProt P37173); assay: SPR
Chain of biotinylated avi-tagged TβRII (human) (P37173 23-567): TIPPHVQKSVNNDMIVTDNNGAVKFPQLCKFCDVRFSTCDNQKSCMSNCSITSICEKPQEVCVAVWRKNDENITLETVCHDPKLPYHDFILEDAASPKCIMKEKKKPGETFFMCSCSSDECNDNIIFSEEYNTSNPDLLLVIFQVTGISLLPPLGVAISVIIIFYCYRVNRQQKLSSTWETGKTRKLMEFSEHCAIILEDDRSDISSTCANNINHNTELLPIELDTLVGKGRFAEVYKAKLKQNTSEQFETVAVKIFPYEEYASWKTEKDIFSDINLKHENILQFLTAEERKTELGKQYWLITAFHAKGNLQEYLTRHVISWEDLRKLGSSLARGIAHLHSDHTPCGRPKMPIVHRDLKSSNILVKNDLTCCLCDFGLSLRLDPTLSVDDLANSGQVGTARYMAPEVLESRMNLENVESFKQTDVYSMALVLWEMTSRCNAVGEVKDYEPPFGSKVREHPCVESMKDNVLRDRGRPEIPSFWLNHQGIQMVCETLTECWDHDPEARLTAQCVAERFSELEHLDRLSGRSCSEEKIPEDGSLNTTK

Chain of biotinylated avi-tagged TβRI (human) (P36897 34-503): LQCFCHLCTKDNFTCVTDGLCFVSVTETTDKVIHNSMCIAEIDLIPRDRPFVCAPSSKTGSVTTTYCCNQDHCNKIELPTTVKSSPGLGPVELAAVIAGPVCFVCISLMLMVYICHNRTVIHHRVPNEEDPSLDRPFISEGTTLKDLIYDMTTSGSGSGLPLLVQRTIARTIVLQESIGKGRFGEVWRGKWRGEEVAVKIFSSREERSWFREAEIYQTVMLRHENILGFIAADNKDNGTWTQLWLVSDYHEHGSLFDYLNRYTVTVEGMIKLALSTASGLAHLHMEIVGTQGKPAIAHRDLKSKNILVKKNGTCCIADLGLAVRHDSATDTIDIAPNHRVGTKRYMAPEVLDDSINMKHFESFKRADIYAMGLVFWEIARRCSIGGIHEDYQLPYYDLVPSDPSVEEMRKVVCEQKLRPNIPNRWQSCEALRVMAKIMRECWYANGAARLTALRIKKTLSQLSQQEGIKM
Chain of TβRII ectodomain (human) (P37173 23-166): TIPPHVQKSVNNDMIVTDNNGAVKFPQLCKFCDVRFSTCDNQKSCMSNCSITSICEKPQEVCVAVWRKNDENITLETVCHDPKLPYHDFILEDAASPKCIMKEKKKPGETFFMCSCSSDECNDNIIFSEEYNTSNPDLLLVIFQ
Chain of TβRI ectodomain (human) (P36897 34-126): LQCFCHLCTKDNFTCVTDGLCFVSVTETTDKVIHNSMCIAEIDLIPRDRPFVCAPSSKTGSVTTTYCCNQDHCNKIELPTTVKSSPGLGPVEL
Chain of TGF-β3:TβRII binary complex (P37173 whole entry, looked up, one chain of several): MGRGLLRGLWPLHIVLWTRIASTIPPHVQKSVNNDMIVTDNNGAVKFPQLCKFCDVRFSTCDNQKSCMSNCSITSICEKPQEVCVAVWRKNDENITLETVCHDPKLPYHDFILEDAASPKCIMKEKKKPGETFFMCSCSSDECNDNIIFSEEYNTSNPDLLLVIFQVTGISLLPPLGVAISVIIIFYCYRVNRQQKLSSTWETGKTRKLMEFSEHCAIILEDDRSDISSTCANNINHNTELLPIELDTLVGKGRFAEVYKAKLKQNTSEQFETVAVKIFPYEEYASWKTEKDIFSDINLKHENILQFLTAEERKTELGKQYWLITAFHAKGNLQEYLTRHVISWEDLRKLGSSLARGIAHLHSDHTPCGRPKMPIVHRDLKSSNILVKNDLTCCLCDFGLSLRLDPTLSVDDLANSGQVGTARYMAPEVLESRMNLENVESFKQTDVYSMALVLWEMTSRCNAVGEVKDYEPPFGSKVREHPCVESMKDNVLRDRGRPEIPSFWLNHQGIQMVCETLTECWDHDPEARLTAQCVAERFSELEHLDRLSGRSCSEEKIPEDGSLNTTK

Row | Substance | stoichiometry N (TβRI ectodomain (human) [1]) | Kd (TβRI ectodomain (human) [2]) | dH (TβRI ectodomain (human) [2]) | Kd [3] | Kd (TβRII ectodomain (human)) | dH (TβRII ectodomain (human)) | Kd [4]
1 | TGM domain 2 (domain or fragment) | 1 | 1.47 µM | -73.9 kJ/mol | 0.309 µM |  |  | 
2 | TGF-β3:TβRII binary complex (from UniProt P37173 23-166) |  | 0.0617 µM | -17.6 kJ/mol |  |  |  | 
3 | full-length TGM (TGF-β mimic of Heligmosomoides polygyrus) (natural protein) |  | 0.0521 µM | -69.8 kJ/mol | 0.0131 µM | 0.55 µM | -29.9 kJ/mol | 0.61 µM
4 | TGM domains 1 and 2 (domain or fragment) |  | 0.0253 µM | -78.2 kJ/mol | 24.1 µM |  |  | 
5 | TGM domain 3 (domain or fragment) |  |  |  |  | 1.15 µM | -44.6 kJ/mol | 0.91 µM
